Measured values published in the supplement of paper PMC7877785.
± gives the uncertainty stated by the source.

Experiment: self-splicing fitness, log relative to wild type (ln ratio); higher = more splicing; Tetrahymena group I intron in knt gene, E. coli kanamycin selection, DiMSum; sequences stand for … in CUCUCU…GGAGGGAAAAGUUAUCAGGCAUGCACCUGGUAGCUAGUCUUUAAACCAAUAGAUUGCAUCGGUUUAAAAGGCAAGACCGUCAAAUUGCGGGAAAGGGGUCAACAGCCGUUCAGUACCAAGUCUCAGGGGAAACUUUGAGAUGGCCUUGCAAAGGGUAUGGUAAUAAGCUGACGGACAUGGUCCUAACCACGCAGCCAAGUCCUAAGUCAACAGAUCUUCUGUUGAUAUGGAUGCAGUUCACAGACUAAAUGUCGGUCGGGGAAGAUGUAUUCUUCUCAUAAGAUAUAGUCGGACCUCUCCUUAAUGGGAGCUAGCGGAUGAAGUGAUGCAACACUGGAGCCGCUGGGAACUAAUUUGUAUGCGAAAGUAUAUUGAUUAGUUUUGGAGUACUCGUGGUCG
Procedure, shortened: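 Fitness was computed with DiMSum as the error-weighted combination of replicate fold changes, kanamycin versus none, each normalised to wild type. The library randomised all eight intron nucleotides of the P1ex region, with the intron placed in the knt kanamycin-resistance gene on pET-22b(+) in E. coli BL21(DE3). Six replicate transformations were grown overnight at 37°C or 30°C on LB agar with or without 25 μg/mL kanamycin, plus 100 μg/mL carbenicillin, 50 μM IPTG and 0.2% rhamnose. Pooled colonies were amplicon-sequenced on an Illumina HiSeq 2500.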

CCUCAGCAAUAUUACGUUAG
self-splicing fitness (ln) (30 °C): -3.27 ± 0.15
self-splicing fitness (ln) (37 °C): -2.14 ± 0.14

CCUCAGCAAUAUUACGUUUC
self-splicing fitness (ln) (30 °C): -3.04 ± 0.17
self-splicing fitness (ln) (37 °C): -2.44 ± 0.2

CCUGAGCAAUAUUACGAAGU
self-splicing fitness (ln) (37 °C): -0.825 ± 0.19

CCUGAGCAAUAUUACGACGA
self-splicing fitness (ln) (30 °C): -2.99 ± 0.24
self-splicing fitness (ln) (37 °C): -1.61 ± 0.17

CCUGAGCAAUAUUACGAUAU
self-splicing fitness (ln) (30 °C): -4.45 ± 0.37
self-splicing fitness (ln) (37 °C): -2.39 ± 0.23

CCUGAGCAAUAUUACGCAAG
self-splicing fitness (ln) (30 °C): -3.97 ± 0.24
self-splicing fitness (ln) (37 °C): -2.49 ± 0.19

CCUGAGCAAUAUUACGCUAU
self-splicing fitness (ln) (30 °C): -3.66 ± 0.2
self-splicing fitness (ln) (37 °C): -3.09 ± 0.19

CCUGAGCAAUAUUACGCUCA
self-splicing fitness (ln) (30 °C): -1.37 ± 0.28
self-splicing fitness (ln) (37 °C): -1.94 ± 0.38

CCUGAGCAAUAUUACGCUGC
self-splicing fitness (ln) (30 °C): -4.04 ± 0.37
self-splicing fitness (ln) (37 °C): -2.34 ± 0.22

CCUGAGCAAUAUUACGGAGA
self-splicing fitness (ln) (30 °C): -2.39 ± 0.25
self-splicing fitness (ln) (37 °C): -3.09 ± 0.35

CCUGAGCAAUAUUACGGCAU
self-splicing fitness (ln) (30 °C): -3.93 ± 0.23
self-splicing fitness (ln) (37 °C): -4.08 ± 0.42

CCUGAGCAAUAUUACGGUUU
self-splicing fitness (ln) (30 °C): -3.26 ± 0.2
self-splicing fitness (ln) (37 °C): -2.38 ± 0.19

CCUGAGCAAUAUUACGUACG
self-splicing fitness (ln) (30 °C): -2.08 ± 0.2
self-splicing fitness (ln) (37 °C): -1.24 ± 0.22

CCUGAGCAAUAUUACGUACU
self-splicing fitness (ln) (30 °C): -2.04 ± 0.21
self-splicing fitness (ln) (37 °C): -2.3 ± 0.3

CCUGAGCAAUAUUACGUCCG
self-splicing fitness (ln) (30 °C): -3.25 ± 0.24
self-splicing fitness (ln) (37 °C): -1.93 ± 0.33

CCUGAGCAAUAUUACGUCGA
self-splicing fitness (ln) (30 °C): -3.41 ± 0.42
self-splicing fitness (ln) (37 °C): -3.34 ± 0.33

CCUGAGCAAUAUUACGUGUG
self-splicing fitness (ln) (30 °C): -1.62 ± 0.058
self-splicing fitness (ln) (37 °C): -1.18 ± 0.066

CCUUAGCAAUAUUACGAAUG
self-splicing fitness (ln) (30 °C): -1.27 ± 0.11
self-splicing fitness (ln) (37 °C): -0.423 ± 0.1

CCUUAGCAAUAUUACGAUUG
self-splicing fitness (ln) (30 °C): -1.85 ± 0.098
self-splicing fitness (ln) (37 °C): -0.965 ± 0.1

CCUUAGCAAUAUUACGCAUU
self-splicing fitness (ln) (30 °C): -4.02 ± 0.46

CCUUAGCAAUAUUACGCCAG
self-splicing fitness (ln) (37 °C): -2.05 ± 0.45

CCUUAGCAAUAUUACGCCGA
self-splicing fitness (ln) (30 °C): -2.16 ± 0.35
self-splicing fitness (ln) (37 °C): -1.98 ± 0.46

CCUUAGCAAUAUUACGCGCG
self-splicing fitness (ln) (30 °C): -2.71 ± 0.39
self-splicing fitness (ln) (37 °C): -3.39 ± 0.42

CCUUAGCAAUAUUACGCGUU
self-splicing fitness (ln) (30 °C): -3.55 ± 0.21
self-splicing fitness (ln) (37 °C): -2.12 ± 0.16

CCUUAGCAAUAUUACGCUGC
self-splicing fitness (ln) (30 °C): -2.81 ± 0.28

CCUUAGCAAUAUUACGCUUG
self-splicing fitness (ln) (30 °C): -3.86 ± 0.3
self-splicing fitness (ln) (37 °C): -3.5 ± 0.37

CCUUAGCAAUAUUACGGAGG
self-splicing fitness (ln) (30 °C): -3.99 ± 0.41
self-splicing fitness (ln) (37 °C): -3.11 ± 0.37

CCUUAGCAAUAUUACGGAGU
self-splicing fitness (ln) (30 °C): -3.24 ± 0.21
self-splicing fitness (ln) (37 °C): -2.78 ± 0.19

CCUUAGCAAUAUUACGGCUG
self-splicing fitness (ln) (30 °C): -3.9 ± 0.19
self-splicing fitness (ln) (37 °C): -2.39 ± 0.17

CCUUAGCAAUAUUACGGGCA
self-splicing fitness (ln) (30 °C): -3.91 ± 0.33
self-splicing fitness (ln) (37 °C): -3.36 ± 0.35

CCUUAGCAAUAUUACGGGCG
self-splicing fitness (ln) (30 °C): -1.64 ± 0.083
self-splicing fitness (ln) (37 °C): -0.95 ± 0.093

CCUUAGCAAUAUUACGGUAA
self-splicing fitness (ln) (30 °C): -2.78 ± 0.27
self-splicing fitness (ln) (37 °C): -2.59 ± 0.35

CCUUAGCAAUAUUACGGUCU
self-splicing fitness (ln) (30 °C): -3.95 ± 0.25
self-splicing fitness (ln) (37 °C): -3.77 ± 0.46

CCUUAGCAAUAUUACGGUUC
self-splicing fitness (ln) (30 °C): -2.91 ± 0.18
self-splicing fitness (ln) (37 °C): -2.72 ± 0.39

CCUUAGCAAUAUUACGUCCG
self-splicing fitness (ln) (30 °C): -1.73 ± 0.11
self-splicing fitness (ln) (37 °C): -0.989 ± 0.17

CCUUAGCAAUAUUACGUCGA
self-splicing fitness (ln) (37 °C): -2.67 ± 0.34

CCUUAGCAAUAUUACGUGCC
self-splicing fitness (ln) (30 °C): -4.23 ± 0.25
self-splicing fitness (ln) (37 °C): -2.41 ± 0.28

CCUUAGCAAUAUUACGUUGA
self-splicing fitness (ln) (30 °C): -3.24 ± 0.21
self-splicing fitness (ln) (37 °C): -3.02 ± 0.24

CCUUAGCAAUAUUACGUUUA
self-splicing fitness (ln) (30 °C): -3.23 ± 0.26
self-splicing fitness (ln) (37 °C): -2.21 ± 0.2

CGAAAGCAAUAUUACGAAGA
self-splicing fitness (ln) (30 °C): -2.12 ± 0.16
self-splicing fitness (ln) (37 °C): -0.849 ± 0.13

CGAAAGCAAUAUUACGAAUA
self-splicing fitness (ln) (30 °C): -2.47 ± 0.29
self-splicing fitness (ln) (37 °C): -2.14 ± 0.2

CGAAAGCAAUAUUACGAAUC
self-splicing fitness (ln) (30 °C): -2.03 ± 0.45
self-splicing fitness (ln) (37 °C): -1.87 ± 0.26

CGAAAGCAAUAUUACGACCU
self-splicing fitness (ln) (30 °C): -0.917 ± 0.079
self-splicing fitness (ln) (37 °C): -0.386 ± 0.11

CGAAAGCAAUAUUACGAGGC
self-splicing fitness (ln) (30 °C): -3.72 ± 0.2
self-splicing fitness (ln) (37 °C): -1.88 ± 0.21

CGAAAGCAAUAUUACGAUAC
self-splicing fitness (ln) (30 °C): -1.99 ± 0.18
self-splicing fitness (ln) (37 °C): -2.11 ± 0.38

CGAAAGCAAUAUUACGCAUA
self-splicing fitness (ln) (30 °C): -3.13 ± 0.25
self-splicing fitness (ln) (37 °C): -2.72 ± 0.2

CGAAAGCAAUAUUACGCCAG
self-splicing fitness (ln) (30 °C): -0.884 ± 0.14
self-splicing fitness (ln) (37 °C): -0.307 ± 0.21

CGAAAGCAAUAUUACGCGCG
self-splicing fitness (ln) (30 °C): -2.64 ± 0.16
self-splicing fitness (ln) (37 °C): -1.34 ± 0.17

CGAAAGCAAUAUUACGGGCU
self-splicing fitness (ln) (30 °C): -2.74 ± 0.14
self-splicing fitness (ln) (37 °C): -1.55 ± 0.17

CGAAAGCAAUAUUACGGGUA
self-splicing fitness (ln) (30 °C): -2.73 ± 0.16
self-splicing fitness (ln) (37 °C): -2.57 ± 0.14

CGAAAGCAAUAUUACGGUAG
self-splicing fitness (ln) (30 °C): -0.561 ± 0.065
self-splicing fitness (ln) (37 °C): -0.437 ± 0.085

CGAAAGCAAUAUUACGGUUG
self-splicing fitness (ln) (30 °C): -0.623 ± 0.057
self-splicing fitness (ln) (37 °C): -0.494 ± 0.073

CGAAAGCAAUAUUACGUACC
self-splicing fitness (ln) (30 °C): -1.18 ± 0.13
self-splicing fitness (ln) (37 °C): -0.845 ± 0.2

CGAAAGCAAUAUUACGUAUG
self-splicing fitness (ln) (30 °C): -1.15 ± 0.057
self-splicing fitness (ln) (37 °C): -0.533 ± 0.083

CGAAAGCAAUAUUACGUGUA
self-splicing fitness (ln) (30 °C): -3 ± 0.13
self-splicing fitness (ln) (37 °C): -2.35 ± 0.13

CGAAAGCAAUAUUACGUUAC
self-splicing fitness (ln) (30 °C): -3.15 ± 0.18
self-splicing fitness (ln) (37 °C): -3.01 ± 0.26

CGACAGCAAUAUUACGAAAU
self-splicing fitness (ln) (30 °C): -3.15 ± 0.12
self-splicing fitness (ln) (37 °C): -3.06 ± 0.19

CGACAGCAAUAUUACGAAGG
self-splicing fitness (ln) (30 °C): -1.94 ± 0.092
self-splicing fitness (ln) (37 °C): -0.848 ± 0.13

CGACAGCAAUAUUACGAAUG
self-splicing fitness (ln) (30 °C): -1.1 ± 0.079
self-splicing fitness (ln) (37 °C): -0.112 ± 0.1

CGACAGCAAUAUUACGAAUU
self-splicing fitness (ln) (30 °C): -3.51 ± 0.19
self-splicing fitness (ln) (37 °C): -2.04 ± 0.18

CGACAGCAAUAUUACGAGCA
self-splicing fitness (ln) (30 °C): -2.11 ± 0.18
self-splicing fitness (ln) (37 °C): -1.26 ± 0.16
